# From patent US20170101451
# Assays:
# SDF-1 17AA = system: T1, SDF-1 17AA
# T1 sequence: KPVSLSYRCPCRFFESH
# [1] = system: stromal cell derived factor-1 (SDF-1alpha), unmutated
# Chain of stromal cell derived factor-1 (SDF-1alpha), unmutated (chain, as listed by the source, change not shown): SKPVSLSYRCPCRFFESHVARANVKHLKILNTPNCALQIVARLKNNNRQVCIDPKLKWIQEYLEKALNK
# Chain of matrix metalloproteinase-2 (MMP-2) (P08253 110-660): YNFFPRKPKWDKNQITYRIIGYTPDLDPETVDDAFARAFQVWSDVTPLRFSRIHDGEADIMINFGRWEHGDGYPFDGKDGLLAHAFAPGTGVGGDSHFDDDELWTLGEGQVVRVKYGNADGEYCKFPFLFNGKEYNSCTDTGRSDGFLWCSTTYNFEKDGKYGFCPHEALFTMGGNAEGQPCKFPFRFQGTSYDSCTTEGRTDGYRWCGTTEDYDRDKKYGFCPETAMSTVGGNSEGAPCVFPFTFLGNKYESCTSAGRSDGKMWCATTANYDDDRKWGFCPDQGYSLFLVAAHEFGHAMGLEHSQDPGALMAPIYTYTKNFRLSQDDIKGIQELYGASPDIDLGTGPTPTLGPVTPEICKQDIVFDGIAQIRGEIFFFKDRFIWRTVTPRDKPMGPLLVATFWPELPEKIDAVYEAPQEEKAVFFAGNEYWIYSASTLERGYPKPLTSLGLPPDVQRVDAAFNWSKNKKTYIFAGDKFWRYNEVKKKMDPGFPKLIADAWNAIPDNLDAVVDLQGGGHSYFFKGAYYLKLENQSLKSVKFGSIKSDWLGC
# Chain of SDF-1(L5E) (chain, as listed by the source): as the sequence (chain, as listed by the source, change not shown) above, with L6E counted along it
# Chain of SDF-1(S4V) (chain, as listed by the source): as the sequence (chain, as listed by the source, change not shown) above, with S5V counted along it
# Chain of SDF-1(L5P) (chain, as listed by the source): as the sequence (chain, as listed by the source, change not shown) above, with L6P counted along it
# Chain of SDF-1(L5W) (chain, as listed by the source): as the sequence (chain, as listed by the source, change not shown) above, with L6W counted along it
substance,measurement,setting,value
matrix metalloproteinase-2 (MMP-2),"cleavage by MMP-2: SDS-PAGE, 2 nmole peptide incubated with MMP-2 for 1 h at RT",SDF-1 17AA,showing cleavage of SDF-1 17AA
same,cleavage by MMP-2: SDS-PAGE positional shift after one hour incubation,SDF-1(L5P),"unlike SDF-1, the mutants did not undergo a positional shift indicative of cleavage"
same,cleavage by MMP-2: SDS-PAGE positional shift after one hour incubation,SDF-1(L5E),"unlike SDF-1, the mutants did not undergo a positional shift indicative of cleavage"
same,cleavage by MMP-2: SDS-PAGE positional shift after one hour incubation,SDF-1(L5W),"unlike SDF-1, the mutants did not undergo a positional shift indicative of cleavage"
same,cleavage by MMP-2: SDS-PAGE positional shift after one hour incubation,[1],"unlike SDF-1, the mutants did not undergo a positional shift indicative of cleavage"
same,cleavage by MMP-2: SDS-PAGE positional shift after one hour incubation,SDF-1(S4V),"unlike SDF-1, the mutants did not undergo a positional shift indicative of cleavage"
